Data published in patent US9212226B2, “Amino acid sequences directed against CXCR4 and other GPCRs and compounds comprising the same” (Ablynx N.V., priority 2008, dated 2015).
Entries after “also recorded” stand apart in the source; their conditions may differ. Marks after values point to notes of the source that are not given here.

Legend:
CXCR4 (N119A) = CXCR4 (N119A) (Homo sapiens, UniProt P61073, N119A); assay: [125I]-CXCL12 competition binding on the constitutively active CXCR4 mutant N119A; conditions: for binding to / displacement of [125I]-CXCL12 from CXCR4 (N119A): highest test concentration 2 μM, n=3
CXCR4 (N119A), sequence (P61073 whole entry N119A): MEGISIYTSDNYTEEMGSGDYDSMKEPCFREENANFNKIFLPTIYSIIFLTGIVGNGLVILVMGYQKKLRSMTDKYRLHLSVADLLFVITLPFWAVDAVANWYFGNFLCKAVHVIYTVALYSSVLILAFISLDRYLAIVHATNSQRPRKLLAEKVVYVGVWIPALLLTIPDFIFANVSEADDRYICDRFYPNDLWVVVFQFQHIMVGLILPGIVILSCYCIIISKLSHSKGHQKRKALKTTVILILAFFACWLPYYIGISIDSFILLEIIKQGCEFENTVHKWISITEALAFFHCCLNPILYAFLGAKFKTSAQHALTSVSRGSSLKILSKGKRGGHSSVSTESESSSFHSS
Protocol: HEK293T cells were maintained at 37° C. in a humidified 5% CO2, 95% air atmosphere in Dulbecco's modified Eagle's medium (DMEM) containing 2 mM L-glutamine, 50 IU/ml penicillin, 50 μg/ml streptomycin, and 10% (v/v) fetal calf serum. Jurkat cells were cultured in a humidified 5% CO2, 95% air atmosphere in a 1:1 mixture of Dulbecco's modified Eagle's medium (DMEM) and Ham's F12 medium containing 2 mM L-glutamine, 50 IU/ml penicillin, 50 μg/ml streptomycin, and 10% (v/v) fetal calf serum. […] [^125 I]-Labelling— Radiolabeling of Nanobodies with ^125I was performed using the Iodo-gen method (Pierce, Rockford, Ill.) according to the manufacturer's protocol. ^125I-labeled Nanobodies was separated from free iodine (>99%) using a Sephadex G-25 gel filtration column (Amersham Biosciences, Piscataway, N.J.). […] Competition Binding Assays— Membranes from HEK293T cells transiently expressing CXCR3 or CXCR4 were prepared 48 h after transfection as follows. Cells were washed and scraped from the cell culture dishes with ice-cold PBS containing 1 mm EDTA. The scraped cells were pelleted at 1500×g for 10 min at 4° C. The pellet was washed and then resuspended in ice-cold membrane buffer (15 mM Tris, pH 7.5, 1 mM EGTA, 0.3 mM EDTA, and 2 mM MgCl2). The cell suspension was homogenized by 10 strokes at 1200 rpm using a Teflon-glass homogenizer and rotor and further subjected to three freeze-thaw cycles using liquid nitrogen. Membranes were separated by centrifugation at 40,000 g for 25 min at 4° C. The membrane pellet was washed and resuspended in ice-cold Tris-sucrose buffer (20 mM Tris, pH 7.4, and 250 mM sucrose) and frozen in liquid nitrogen. The total protein was determined using a Bradford assay (Bio-Rad). Periplasmas (1:10) or ligands were pre-incubated with membranes in binding buffer (50 mM HEPES (pH 7.4), 1 mM CaCl2, 5 mM MgCl2, 100 mM NaCl, 0.5% bovine serum albumin) supplemented with 0.5% BSA for 1 h at 22° C. before the addition of [^125I]-CXCL12 (40 pM) or [^125I]-238D2 (3 nM) or [^125I]-238D4 (3 nM) for additional 2 h at 22° C. […] Membranes were then harvested over polyethylenimine (0.5%)-treated Whatman GF/C filter plates and washed three times with ice cold binding buffer containing 500 mM NaCl. Plates were counted by liquid scintillation. Inositol Phosphate Accumulation Assay— 24 hours post transfection with pcDNA3.1-CXCR4 and pcDNA1-HA-mG {alpha} qi5 (see Verzijl et al, 2008 supra), 250.000 cells were seeded into 24-wells plates and labelled overnight using inositol-free minimal essential medium supplemented with 1 μCi myo-[2-^3H]-inositol. The next day, the cells were washed once to remove not incorporated myo-[2-^3H]-inositol. […] The accumulated inositol phosphates were isolated by anion exchange chromatography and counted by liquid scintillation. […]

CXCR6 = CXCR6 (Homo sapiens, UniProt O00574); assay: CRE/β-galactosidase reporter gene selectivity screen, CXCR6; type: cell-based; conditions: up to 2.5, forskolin 3 μM, agonist at 50-80% Emax
CXCR6, sequence (O00574 whole entry, species assumed): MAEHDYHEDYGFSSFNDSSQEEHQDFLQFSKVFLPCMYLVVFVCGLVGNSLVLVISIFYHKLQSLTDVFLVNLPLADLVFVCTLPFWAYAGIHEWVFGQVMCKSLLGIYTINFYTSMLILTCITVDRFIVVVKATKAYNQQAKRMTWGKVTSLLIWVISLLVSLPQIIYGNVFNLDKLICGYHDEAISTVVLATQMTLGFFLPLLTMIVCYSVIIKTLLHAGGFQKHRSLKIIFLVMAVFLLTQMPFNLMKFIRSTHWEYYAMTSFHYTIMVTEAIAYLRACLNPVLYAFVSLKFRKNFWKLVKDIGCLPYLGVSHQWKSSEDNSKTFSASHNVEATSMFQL
Protocol: Data are shown as means±S.E.M. (n=2-3).
HEK293T cells were maintained at 37° C. in a humidified 5% CO2, 95% air atmosphere in Dulbecco's modified Eagle's medium (DMEM) containing 2 mM L-glutamine, 50 IU/ml penicillin, 50 μg/ml streptomycin, and 10% (v/v) fetal calf serum. Jurkat cells were cultured in a humidified 5% CO2, 95% air atmosphere in a 1:1 mixture of Dulbecco's modified Eagle's medium (DMEM) and Ham's F12 medium containing 2 mM L-glutamine, 50 IU/ml penicillin, 50 μg/ml streptomycin, and 10% (v/v) fetal calf serum. […] [^125 I]-Labelling— Radiolabeling of Nanobodies with ^125I was performed using the Iodo-gen method (Pierce, Rockford, Ill.) according to the manufacturer's protocol. ^125I-labeled Nanobodies was separated from free iodine (>99%) using a Sephadex G-25 gel filtration column (Amersham Biosciences, Piscataway, N.J.). […] Competition Binding Assays— Membranes from HEK293T cells transiently expressing CXCR3 or CXCR4 were prepared 48 h after transfection as follows. Cells were washed and scraped from the cell culture dishes with ice-cold PBS containing 1 mm EDTA. The scraped cells were pelleted at 1500×g for 10 min at 4° C. […] The total protein was determined using a Bradford assay (Bio-Rad). […] Plates were counted by liquid scintillation. […] The accumulated inositol phosphates were isolated by anion exchange chromatography and counted by liquid scintillation. […]

CXCR4 = CXCR4 (Homo sapiens, UniProt P61073); assay: CRE/β-galactosidase reporter gene assay in HEK293T cells expressing CXCR4; type: cell-based; conditions: for Schild slope: log(CR-1) vs -log[Nanobody]
CXCR4, sequence (P61073 whole entry): as the sequence (P61073 whole entry N119A) above, with A119N counted along it
Protocol: (§1) HEK293T cells were maintained at 37° C. in a humidified 5% CO2, 95% air atmosphere in Dulbecco's modified Eagle's medium (DMEM) containing 2 mM L-glutamine, 50 IU/ml penicillin, 50 μg/ml streptomycin, and 10% (v/v) fetal calf serum. Jurkat cells were cultured in a humidified 5% CO2, 95% air atmosphere in a 1:1 mixture of Dulbecco's modified Eagle's medium (DMEM) and Ham's F12 medium containing 2 mM L-glutamine, 50 IU/ml penicillin, 50 μg/ml streptomycin, and 10% (v/v) fetal calf serum. […] [^125 I]-Labelling— Radiolabeling of Nanobodies with ^125I was performed using the Iodo-gen method (Pierce, Rockford, Ill.) according to the manufacturer's protocol. ^125I-labeled Nanobodies was separated from free iodine (>99%) using a Sephadex G-25 gel filtration column (Amersham Biosciences, Piscataway, N.J.). […] Competition Binding Assays— Membranes from HEK293T cells transiently expressing CXCR3 or CXCR4 were prepared 48 h after transfection as follows. Cells were washed and scraped from the cell culture dishes with ice-cold PBS containing 1 mm EDTA. The scraped cells were pelleted at 1500×g for 10 min at 4° C. The pellet was washed and then resuspended in ice-cold membrane buffer (15 mM Tris, pH 7.5, 1 mM EGTA, 0.3 mM EDTA, and 2 mM MgCl2). The cell suspension was homogenized by 10 strokes at 1200 rpm using a Teflon-glass homogenizer and rotor and further subjected to three freeze-thaw cycles using liquid nitrogen. Membranes were separated by centrifugation at 40,000 g for 25 min at 4° C. The membrane pellet was washed and resuspended in ice-cold Tris-sucrose buffer (20 mM Tris, pH 7.4, and 250 mM sucrose) and frozen in liquid nitrogen. The total protein was determined using a Bradford assay (Bio-Rad). Periplasmas (1:10) or ligands were pre-incubated with membranes in binding buffer (50 mM HEPES (pH 7.4), 1 mM CaCl2, 5 mM MgCl2, 100 mM NaCl, 0.5% bovine serum albumin) supplemented with 0.5% BSA for 1 h at 22° C. before the addition of [^125I]-CXCL12 (40 pM) or [^125I]-238D2 (3 nM) or [^125I]-238D4 (3 nM) for additional 2 h at 22° C. […] Membranes were then harvested over polyethylenimine (0.5%)-treated Whatman GF/C filter plates and washed three times with ice cold binding buffer containing 500 mM NaCl. Plates were counted by liquid scintillation. Inositol Phosphate Accumulation Assay— 24 hours post transfection with pcDNA3.1-CXCR4 and pcDNA1-HA-mG {alpha} qi5 (see Verzijl et al, 2008 supra), 250.000 cells were seeded into 24-wells plates and labelled overnight using inositol-free minimal essential medium supplemented with 1 μCi myo-[2-^3H]-inositol. The next day, the cells were washed once to remove not incorporated myo-[2-^3H]-inositol. […] In agonist experiments, the cells were directly stimulated with test compounds and LiCl (10 mM) in assay buffer for 2 h at 37° C. The stimulation was stopped by aspirating the stimulation medium and adding ice-cold 10 mM formic acid. The accumulated inositol phosphates were isolated by anion exchange chromatography and counted by liquid scintillation. CRE Reporter Gene Assay— HEK239T cells were transfected with pCRE/β-galactosidase (Chen W, Shields T S, Stork P J S, Cone R D (1995) Anal Biochem 226:349-354) and plasmids (pcDEF3 or pcDNA3.1) encoding the indicated receptors. 40,000 transfected cells per well were seeded into 96 well plates and grown in DMEM supplemented with 10% fetal calf serum. The medium was replaced 32 h after transfection by serum-free DMEM supplemented with 0.5% bovine serum albumin and ligands as indicated. Following 16 h of ligand incubation, the medium was removed, the cells were lysed in 100 μl of assay buffer (100 mM sodium phosphate buffer at pH 8.0, 4 mM 2-nitrophenol-β-D-pyranoside, 0.5% Triton X-100, 2 mM MgSO4, 0.1 mM MnCl2, and 40 mM β-mercaptoethanol) and incubated at room temperature. […]

[1] = test system: Jurkat cells endogenously expressing CXCR4; assay: Chemotaxis assay (ChemoTx plates) with Jurkat cells towards CXCL12; type: cell-based
Protocol: as §1

[2] = HEK293T-CXCR4-CREbgal/0.01-100 nM CXCL12, mean ± S.E.M.
[3] = Jurkat/0.3 nM CXCL12, monovalent Nanobodies, mean ± S.E.M.

binding affinity at CXCR4 (N119A) compared to the wild type receptor (CXCR4 (N119A))	binding to / displacement of [125I]-CXCL12 from CXCR4 (N119A) (CXCR4 (N119A))	mode of antagonism of the CXCL12-induced activation of signal transduction (CXCR4)	Imax (%), CRE activation (CXCR4; [2])	pKi or pIC50, CRE activation (CXCR4; [2])	pKB (CXCR4; from Schild plot data, CXCL12-induced reporter gene response)	Schild slope (CXCR4)	pKi or pIC50, Chemotaxis [1, 3]	Molecule	effect on agonist-induced response at CXCR6 (CXCR6)	agonist activity in the absence of CXCL12, CRE reporter (CXCR4)	Imax (%), Chemotaxis [1, 3]	inhibition of migration of Jurkat cells towards CXCL12 ([1]; 300 pM CXCL12)	induction of migration of Jurkat cells (agonism) ([1]; test compound in lower compartment)
somewhat less	displace; also recorded: able to bind	competitive antagonism	104 ± 5^a %	7.64 ± 0.16^b	7.64±0.16	0.91±0.20	8.33 ± 0.16	238D2: Nanobody (VHH) raised against human CXCR4, SEQ ID NO: 238 (protein, Nanobody, Nanobody constructs or fragments thereof) VHH: EVQLVESGGGLVQTGGSLRLSCAASGFTFSSYAMSWVRQAPGKGLEWVSGIKSSGDSTRYAGSVKGRFTISRDNAKNMLYLQMYSLKPEDTAVYYCAKSRVSRTGLYTYDNRGQGTQVTVSS	do not act as agonists or antagonists; also recorded: do not alter	No agonist activity; also recorded: did not show any agonist activity	106 ± 2%	–	–
somewhat less	displace; also recorded: able to bind	competitive antagonism	90 ± 15^a %	–	–	0.71±0.17	–	238D4: Nanobody (VHH) raised against human CXCR4, SEQ ID NO: 239 (protein, Nanobody, Nanobody constructs or fragments thereof) VHH: EVQLMESGGGLVQAGGSLRLSCAASGRTFNNYAMGWFRRAPGKEREFVAAITRSGVRSGVSAIYGDSVKDRFTISRDNAKNTLYLQMNSLKPEDTAVYTCAASAIGSGALRRFEYDYSGQGTQVTVSS	do not act as agonists or antagonists; also recorded: do not alter	No agonist activity; also recorded: did not show any agonist activity	101 ± 4%	concentration-dependently inhibited	unable to induce any significant migration
